Laboratory results from patent US9637764B2, “Methods of producing 7-carbon chemicals via carbon chain elongation associated with cyclohexane carboxylate synthesis” (INVISTA North America S.á r.l., priority 2012, dated 2017).

Columns and labels:
Format in all cases: biochemical
[1] = Carboxylate reductase activity assay, pimelate to pimelate semialdehyde (NADPH consumption, absorbance at 340 nm); conditions: purified enzyme enhanced by the gene product of sfp, 2 mM pimelate, 1 mM ATP, 1 mM NADPH, pH=7.5, room temperature, 20 min; against the empty vector control; FIG. 10
Protocol: A sequence encoding a HIS-tag was added to the genes from Segniliparus rugosus and Segniliparus rotundus that encode the carboxylate reductases of SEQ ID NOs: 4 and 7, respectively (see FIGS. 7C and 7F), such that N-terminal HIS tagged carboxylate reductases could be produced. Each of the modified genes was cloned into a pET Duet expression vector along with a sfp gene encoding a HIS-tagged phosphopantetheine transferase from Bacillus subtilis, both under the T7 promoter. Each expression vector was transformed into a BL21[DE3] E. coli host and the resulting recombinant E. coli strains were cultivated at 37° C. in a 250 mL shake flask culture containing 50 mL LB media and antibiotic selection pressure, with shaking at 230 rpm. Each culture was induced overnight at 37° C. using an auto-induction media.
The pellet from each induced shake flask culture was harvested via centrifugation. Each pellet was resuspended and lysed via sonication, and the cell debris was separated from the supernatant via centrifugation. […]
Enzyme activity assays (i.e., from pimelate to pimelate semialdehyde) were performed in triplicate in a buffer composed of a final concentration of 50 mM HEPES buffer (pH=7.5), 2 mM pimelate, 10 mM MgCl2, 1 mM ATP and 1 mM NADPH. […] The consumption of NADPH was monitored by absorbance at 340 nm.

[2] = Carboxylate reductase activity assay, N7-acetyl-7-aminoheptanoate to N7-acetyl-7-aminoheptanal (NADPH consumption, absorbance at 340 nm); conditions: purified enzyme enhanced by the gene product of sfp, 2 mM N7-acetyl-7-aminoheptanoate, 1 mM ATP, 1 mM NADPH, pH=7.5, room temperature, 20 min; against the empty vector control; FIG. 12
Protocol: The activity of each of the N-terminal His-tagged carboxylate reductases of SEQ ID NOs: 3, 6, and 7 (see Examples 4, and FIGS. 7B, 7E, and 7F) for converting N7-acetyl-7-aminoheptanoate to N7-acetyl-7-aminoheptanal was assayed in triplicate in a buffer composed of a final concentration of 50 mM HEPES buffer (pH=7.5), 2 mM N7-acetyl-7-aminoheptanoate, 10 mM MgCl2, 1 mM ATP, and 1 mM NADPH. The assays were initiated by adding purified carboxylate reductase and phosphopantetheine transferase or the empty vector control to the assay buffer containing the N7-acetyl-7-aminoheptanoate then incubated at room temperature for 20 min. The consumption of NADPH was monitored by absorbance at 340 nm.

[3] = Carboxylate reductase activity assay, pimelate semialdehyde to heptanedial (NADPH consumption, absorbance at 340 nm); conditions: purified enzyme enhanced by the gene product of sfp, 2 mM pimelate semialdehyde, 1 mM ATP, 1 mM NADPH, pH=7.5, room temperature, 20 min; against the empty vector control; FIG. 13
Protocol: The N-terminal His-tagged carboxylate reductase of SEQ ID NO 7 (see Example 4 and FIG. 7F) was assayed using pimelate semialdehyde as substrate. The enzyme activity assay was performed in triplicate in a buffer composed of a final concentration of 50 mM HEPES buffer (pH=7.5), 2 mM pimelate semialdehyde, 10 mM MgCl2, 1 mM ATP and 1 mM NADPH. The enzyme activity assay reaction was initiated by adding purified carboxylate reductase and phosphopantetheine transferase or the empty vector control to the assay buffer containing the pimelate semialdehyde and then incubated at room temperature for 20 min. The consumption of NADPH was monitored by absorbance at 340 nm.

B1: SEQ ID NO 7: Segniliparus rotundus carboxylate reductase, Genbank Accession No. ADG98140.1 (protein, listed as Segniliparus rotundus)
chain: MTQSHTQGPQASAAHSRLARRAAELLATDPQAAATLPDPEVVRQATRPGLRLAERVDAILSGYADRPALGQRSFQTVKDPITGRSSVELLPTFDTITYRELRERATAIASDLAHHPQAPAKPGDFLASIGFISVDYVAIDIAGVFAGLTAVPLQTGATLATLTAITAETAPTLFAASIEHLPTAVDAVLATPSVRRLLVFDYRAGSDEDREAVEAAKRKIADAGSSVLVDVLDEVIARGKSAPKAPLPPATDAGDDSLSLLIYTSGSTGTPKGAMYPERNVAHFWGGVWAAAFDEDAAPPVPAINITFLPLSHVASRLSLMPTLARGGLMHFVAKSDLSTLFEDLKLARPTNLFLVPRVVEMLYQHYQSELDRRGVQDGTREAEAVKDDLRTGLLGGRILTAGFGSAPLSAELAGFIESLLQIHLVDGYGSTEAGPVWRDGYLVKPPVTDYKLIDVPELGYFSTDSPHPRGELAIKTQTILPGYYKRPETTAEVFDEDGFYLTGDVVAQIGPEQFAYVDRRKNVLKLSQGEFVTLAKLEAAYSSSPLVRQLFVYGSSERSYLLAVIVPTPDALKKFGVGEAAKAALGESLQKIARDEGLQSYEVPRDFIIETDPFTVENGLLSDARKSLRPKLKEHYGERLEAMYKELADGQANELRDIRRGVQQRPTLETVRRAAAAMLGASAAEIKPDAHFTDLGGDSLSALTFSNFLHDLFEVDVPVGVIVSAANTLGSVAEHIDAQLAGGRARPTFATVHGKGSTTIKASDLTLDKFIDEQTLEAAKHLPKPADPPRTVLLTGANGWLGRFLALEWLERLAPAGGKLITIVRGKDAAQAKARLDAAYESGDPKLAGHYQDLAATTLEVLAGDFSEPRLGLDEATWNRLADEVDFISHPGALVNHVLPYNQLFGPNVAGVAEIIKLAITTRIKPVTYLSTVAVAAGVEPSALDEDGDIRTVSAERSVDEGYANGYGNSKWGGEVLLREAHDRTGLPVRVFRSDMILAHQKYTGQVNATDQFTRLVQSLLATGLAPKSFYELDAQGNRQRAHYDGIPVDFTAESITTLGGDGLEGYRSYNVFNPHRDGVGLDEFVDWLIEAGHPITRIDDYDQWLSRFETSLRGLPESKRQASVLPLLHAFARPGPAVDGSPFRNTVFRTDVQKAKIGAEHDIPHLGKALVLKYADDIKQLGLL
[1]
  carboxylate reductase activity for converting pimelate to pimelate semialdehyde: accepted pimelate as substrate
[2]
  carboxylate reductase activity for converting N7-acetyl-7-aminoheptanoate to N7-acetyl-7-aminoheptanal: accepted N7-acetyl-7-aminoheptanoate as substrate
[3]
  carboxylate reductase activity for converting pimelate semialdehyde to heptanedial: accepted pimelate semialdehyde as substrate
